Test results as given in paper doi:10.1101/586255v1.

B1: EcSerRS (Escherichia coli K-12) (protein)
chain: MLDPNLLRNEPDAVAEKLARRGFKLDVDKLGALEERRKVLQVKTENLQAERNSRSKSIGQAKARGEDIEPLRLEVNKLGEELDAAKAELDALQAEIRDIALTIPNLPADEVPVGKDENDNVEVSRWGTPREFDFEVRDHVTLGEMHSGLDFAAAVKLTGSRFVVMKGQIARMHRALSQFMLDLHTEQHGYSENYVPYLVNQDTLYGTGQLPKFAGDLFHTRPLEEEADTSNYALIPTAEVPLTNLVRGEIIDEDDLPIKMTAHTPCFRSEAGSYGRDTRGLIRMHQFDKVEMVQIVRPEDSMAALEEMTGHAEKVLQLLGLPYRKIILCTGDMGFGACKTYDLEVWIPAQNTYREISSCSNVWDFQARRMQARCRSKSDKKTRLVHTLNGSGLAVGRTLVAVMENYQQADGRIEVPEVLRPYMNGLEYIG
B2: SaSerRS (Staphylococcus aureus subsp. aureus NCTC 8325) (protein)
chain: MLDIRLFRNEPDTVKSKIELRGDDPKVVDEILELDEQRRKLISATEEMKARRNKVSEEIALKKRNKENADDVIAEMRTLGDDIKEKDSQLNEIDNKMTGILCRIPNLISDDVPQGESDEDNVEVKKWGTPREFSFEPKAHWDIVEELKMADFDRAAKVSGARFVYLTNEGAQLERALMNYMITKHTTQHGYTEMMVPQLVNADTMYGTGQLPKFEEDLFKVEKEGLYTIPTAEVPLTNFYRNEIIQPGVLPEKFTGQSACFRSEAGSAGRDTRGLIRLHQFDKVEMVRFEQPEDSWNALEEMTTNAEAILEELGLPYRRVILCTGDIGFSASKTYDLEVWLPSYNDYKEISSCSNCTDFQARRANIRFKRDKAAKPELAHTLNGSGLAVGRTFAAIVENYQNEDGTVTIPEALVPFMGGKTQISKPVK

Substrate: N[C@@H](CO)C(=O)O
Assay: purified protein, by the assay type
Settings: pH 7.6; 37.0 °C

Row | Protein | Km
1 | B1 | 4.706 ± 0.706 mM
2 | B2 | 4.39 ± 0.654 mM
